Assay results taken from US20060008891A1, “Cathepsin G-related peptides as modulators of formylpeptide receptors (FPR)” (The Government of USA as repersented by the Secretary, …, priority 2004, published 2006).
Where “and” joins values, the source holds several entries; their conditions need not be identical. Equal entries are not always repeated.

Columns and labels:
FPR [1] = molecular target: T1, FPR (Homo sapiens, UniProt P21462); assay: Chemotaxis assay, RBL cells transfected with FPR (ETFR cells); assay type: cell-based
T1 construct: expressed in transfected cells; host or cells: Rat basophilic leukemia (RBL) cells, stably transfected (ETFR cells); gift of H. Ali and R. Snyderman, Duke University
T1 sequence (P21462 1-350): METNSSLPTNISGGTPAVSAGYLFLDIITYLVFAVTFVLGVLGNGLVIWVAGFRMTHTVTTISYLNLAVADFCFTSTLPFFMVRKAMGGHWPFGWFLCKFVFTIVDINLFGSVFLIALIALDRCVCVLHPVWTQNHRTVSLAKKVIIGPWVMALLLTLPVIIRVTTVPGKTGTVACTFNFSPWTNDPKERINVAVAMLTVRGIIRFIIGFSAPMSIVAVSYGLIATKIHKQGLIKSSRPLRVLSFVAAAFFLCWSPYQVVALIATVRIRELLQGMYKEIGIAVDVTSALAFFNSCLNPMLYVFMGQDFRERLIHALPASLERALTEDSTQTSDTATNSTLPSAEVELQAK
Method: (§1) Human PBMC were isolated from leukopacks obtained through the courtesy of Transfusion Medicine Department, National Institutes of Health Clinical Center (Bethesda, Md.) by Ficoll-Hypaque density gradient centrifugation. Monocytes were purified from human PBMC by Percoll gradient to yield>90% pure preparations. […] H. Ali and R. Snyderman, Duke University (Durham, N.C.) and maintained in the presence of 0.8 mg/ml geneticin (G418, Life Technologies, Rockville, Md.) in DMEM supplemented with 10% FCS. B. Chemotaxis assay Migration of phagocytes and ETFR cells was assessed using a 48-well microchemotaxis chamber (Neuroprobe, Cabin John, Md.) as previously described (Hu et al. (2001) J Leukoc Biol 70 15512). Briefly, different concentrations of stimulants were placed in the wells of the lower compartment of the chamber, and 50 μl cells (1.5×10^6 cells/ml for monocyte and neutrophil, 1×10^6 ETFR cells/ml) were added to the wells of the upper compartment. The lower and upper compartments were separated by either a 5-μm (for monocyte) or a 10-μm pore size, collagen-coated (for ETFR cells) polycarbonate filter (Osmonics, Livermore, Calif.). After incubation at 37° C. in humidified air with 5% CO2 (60 min for neutrophils, 90 min for monocytes, 4.5 h for ETFR cells), the filter was removed and stained, and the cells migrating across the filter were counted with light microscopy. The results are presented as the mean number of cells (±SD) in three high power fields (HPFs). For analysis of cross-desensitization, cells were pretreated with indicated reagents for 1 h at 37° C. After thorough washing with cold medium (RPMI 1640, 1% BSA), the cells were resuspended and assayed. To measure the effect of various signaling inhibitors, unless otherwise indicated, the cells were pre-incubated at 37° C. for 60 min with the inhibitors, and were then added to the upper wells of the chemotaxis chamber.

parental RBL cells [2] = assay: Chemotaxis assay, parental RBL cells; assay type: cell-based, rat; settings: parental RBL cells without FPR
Method: as §1, with “The results are presented as the mean number of cells (±SD) in three high power fields (HPFs). For analysis of cross-desensitization, cells were pretreated with indicated reagents for 1 h at 37° C. After thorough washing with cold medium (RPMI 1640, 1% BSA), the cells were resuspended and assayed. To measure the effect of various signaling inhibitors, unless otherwise indicated, the cells were pre-incubated at 37° C. for 60 min with the inhibitors, and were then added to the upper wells of the chemotaxis chamber.” left out

PKCζ = PKCζ translocation in ETFR cells (confocal microscopy); assay type: cell-based, rat; settings: 100 nM fMLF, 10 μg/ml CaG or PMA 500 nM, 37° C. 10 min
Method: ETFR cells were seeded on coverslips and cultured overnight in DMEM containing 1% FCS at 37° C. After further culture in FCS-free DMEM for 3 h, cells were treated with stimulants for indicated time periods at 37° C. and were then fixed in 4% paraformaldehyde for 5 min at room temperature. The cells were permeabilized with 0.2% Tween 20 for 30 min at 4° C. and the reaction was blocked with 5% goat normal serum for 15 min at room temperature. The rabbit anti-PKCα/β, δ, and ξ, antibodies (1:1000 in DPBS) were applied separately for 1 h at room temperature. After three rinses with DPBS, the cells were stained with FITC-labeled goat anti-rabbit secondary antibody (PharMingen, 1:1000 in DPBS) for 1 h at room temperature. The coverslips were mounted with an anti-fade, water-based mounting medium with Propidium Iodide (PI) (Vector Lab, Burlingamem, Calif.) and analyzed under a laser scanning confocal fluorescence microscope (Zeiss LSM510 NLO Meta, Jena, Germany). Excitation wavelengths 488 (for FITC) and 568 (for PI) nm were used to generate fluorescence emission in green and red, respectively.

CHI-39 = assay: Chemotaxis of HEK293 cells transfected with chimeric receptor CHI-39; assay type: cell-based, human; settings: N-terminus of FPR replaced by FPRL1 sequences
Method: Human PBMC were isolated from leukopacks obtained through the courtesy of Transfusion Medicine Department, National Institutes of Health Clinical Center (Bethesda, Md.) by Ficoll-Hypaque density gradient centrifugation. Monocytes were purified from human PBMC by Percoll gradient to yield>90% pure preparations. […] H. Ali and R. Snyderman, Duke University (Durham, N.C.) and maintained in the presence of 0.8 mg/ml geneticin (G418, Life Technologies, Rockville, Md.) in DMEM supplemented with 10% FCS. B. Chemotaxis assay Migration of phagocytes and ETFR cells was assessed using a 48-well microchemotaxis chamber (Neuroprobe, Cabin John, Md.) as previously described (Hu et al. (2001) J Leukoc Biol 70 15512). […] After incubation at 37° C. in humidified air with 5% CO2 (60 min for neutrophils, 90 min for monocytes, 4.5 h for ETFR cells), the filter was removed and stained, and the cells migrating across the filter were counted with light microscopy. […]
The chimeric receptor was stably transfected into HEK293 cells (a human embryo kidney cell line) and the chemotactic activity of CaG on the transfected cells was measured and compared to the chemotactic activity of CaG on […] cells transfected with wild type FPR, using the assay for chemotaxis described in Example IB. […]

parental RBL cells [3] = assay: 125I-CaG binding to parental RBL cells; parameters: species or system rat; settings: 25 nM 125I-CaG
Method: (§2) CaG was iodinated with a chrolamine-T method (Lofstrand Labs, Gaithersburg, Md.) with a specific activity of […] protein. Duplicate samples of ETFR cells or the parental RBL cells (2×10^6 cells in 200 μl RPMI 1640 containing 1% bovine serum albumin, 25 mM Hepes, and 0.05% NaN3) were incubated with 25 nM ^125I-CaG, in the presence of increasing concentrations of unlabeled ligands. After incubation and rotation at room temperature for 1 h, the cells were pelleted through a 10% sucrose/PBS cushion for 1 min at 10,000 g. The supernatant was removed and the radioactivity associated with cell pellets was measured in a γ counter (CliniGamma, Pharmacia Biotech Inc.). The binding data were analyzed with a Macintosh computer-aided program LIGAND (Dr. P. Munson, Division of Computer Research and Technology, NIH, Bethesda, Md.).

FPR [4] = molecular target: T1, FPR; assay: 125I-CaG binding to ETFR cells; settings: LIGAND program
Method: as §2

Q: How did the “chemotactic response of ETFR cells” value (FPR [1]; ETFR cells) turn out when “CaG: Cathepsin G, serine protease purified from neutrophil granules, purchased from Athens Research & Technology” was run?
A: marked and dose-dependent chemotactic response

Q: And the “concentration range potently chemotactic” value (FPR [1]; ETFR cells)?
A: 4 to 400 nM

Q: And the “optimal concentration to induce ETFR cell migration” value (FPR [1]; ETFR cells)?
A: 5 µg/mL

Q: And the “concentration required to elicit optimal cell migration” value (FPR [1]; FPR-expressing cells, cell type not specified)?
A: 5-10 μg/ml and 200-400 nM

Q: And the “migration of parental RBL cells” value (parental RBL cells [2])?
A: Neither CaG nor fMLF induced migration of parental RBL cells

Q: And the “translocation of PKCζ” value (PKCζ)?
A: a substantial proportion of PKCξ translocated to the cell membrane region

Q: What about the “chemotactic activity on CHI-39-transfected HEK293 cells” value (CHI-39) of the same substance?
A: exhibit robust migration in response to CaG

Q: And the “specific binding of 125I-CaG to parental RBL cells” value (parental RBL cells [3])?
A: no measurable levels of specific binding

Q: And the “Kd of 125I-CaG binding” value (FPR [4])?
A: approximately 2 μg/ml
